Test system: HEK293 cells
Assay: Hispidin hydroxylase activity in HEK293 cells co-transfected with nnLuz_v3, hispidin added, normalized to HiBiT
Format: cell-based
Description: A library of amino acid substitutions was created applying mutagenesis to a gene encoding the hispidin hydroxylase derived from Neonothopanus nambi (SEQ ID NO: 12). This was achieved by the same method as described in Example 1. Activity was evaluated in HEK293 cells co-transfected with a gene encoding nnLuz_v3. Bioluminescence was measured as described in Example 1, except with addition of hispidin instead of luciferin.
To estimate specific activity, both luciferase activity and HiBiT were measure for each sample (see Example 2). Activity of each variant was then normalized to the expression level (i.e., luciferase bioluminescence/HiBiT signal). Substitutions at 28 positions were examined by this method.

Row | Molecule | bioluminescence over parental enzyme nnH3H_WT, normalized to expression level (HiBiT)
1 | D37E: nnH3H hispidin hydroxylase variant with single substitution D37E (protein, listed as Neonothopanus nambi) MASFENSLSVLIVGAGLGGLAAAIALRRQGHVVKIYESSSFKAELGAGLAVPPNTLRSLQQLGCNTENLNGVDNLCFTAMGYDGSVGMMNNMTDYREAYGTSWIMVHRVDLHNELMRVALDPGGLGPPATLHLNHRVTFCDVDACTVTFTNGTTQSADLIVGADGIRSTIRRFVLEEDVTVPASGIVGFRWLVQADALDPYPELDWIVKKPPLGARLISTPQNPQSGVGLADRRTIIIYACRGGTMVNVLAVHDDERDQNTADWSVPASKDDLFRVFHDYHPRFRRLLELAQDINLWQMRVVPVLKKWVNKRVCLLGDAAHASLPTLGQGFGMGLEDAVALGTLLPKGTTASQIETRLAVYEQLRKDRAEFVAAESYEEQYVPEMRGLYLRSKELRDRVMGYDIKVESEKVLETLLRSSNSA | significantly increased bioluminescence
2 | V181I: nnH3H hispidin hydroxylase variant with single substitution V181I (protein, listed as Neonothopanus nambi) MASFENSLSVLIVGAGLGGLAAAIALRRQGHVVKIYDSSSFKAELGAGLAVPPNTLRSLQQLGCNTENLNGVDNLCFTAMGYDGSVGMMNNMTDYREAYGTSWIMVHRVDLHNELMRVALDPGGLGPPATLHLNHRVTFCDVDACTVTFTNGTTQSADLIVGADGIRSTIRRFVLEEDVTIPASGIVGFRWLVQADALDPYPELDWIVKKPPLGARLISTPQNPQSGVGLADRRTIIIYACRGGTMVNVLAVHDDERDQNTADWSVPASKDDLFRVFHDYHPRFRRLLELAQDINLWQMRVVPVLKKWVNKRVCLLGDAAHASLPTLGQGFGMGLEDAVALGTLLPKGTTASQIETRLAVYEQLRKDRAEFVAAESYEEQYVPEMRGLYLRSKELRDRVMGYDIKVESEKVLETLLRSSNSA | significantly increased bioluminescence
3 | A183P: nnH3H hispidin hydroxylase variant with single substitution A183P (protein, listed as Neonothopanus nambi) MASFENSLSVLIVGAGLGGLAAAIALRRQGHVVKIYDSSSFKAELGAGLAVPPNTLRSLQQLGCNTENLNGVDNLCFTAMGYDGSVGMMNNMTDYREAYGTSWIMVHRVDLHNELMRVALDPGGLGPPATLHLNHRVTFCDVDACTVTFTNGTTQSADLIVGADGIRSTIRRFVLEEDVTVPPSGIVGFRWLVQADALDPYPELDWIVKKPPLGARLISTPQNPQSGVGLADRRTIIIYACRGGTMVNVLAVHDDERDQNTADWSVPASKDDLFRVFHDYHPRFRRLLELAQDINLWQMRVVPVLKKWVNKRVCLLGDAAHASLPTLGQGFGMGLEDAVALGTLLPKGTTASQIETRLAVYEQLRKDRAEFVAAESYEEQYVPEMRGLYLRSKELRDRVMGYDIKVESEKVLETLLRSSNSA | significantly increased bioluminescence
4 | S323M: nnH3H hispidin hydroxylase variant with single substitution S323M (protein, listed as Neonothopanus nambi) MASFENSLSVLIVGAGLGGLAAAIALRRQGHVVKIYDSSSFKAELGAGLAVPPNTLRSLQQLGCNTENLNGVDNLCFTAMGYDGSVGMMNNMTDYREAYGTSWIMVHRVDLHNELMRVALDPGGLGPPATLHLNHRVTFCDVDACTVTFTNGTTQSADLIVGADGIRSTIRRFVLEEDVTVPASGIVGFRWLVQADALDPYPELDWIVKKPPLGARLISTPQNPQSGVGLADRRTIIIYACRGGTMVNVLAVHDDERDQNTADWSVPASKDDLFRVFHDYHPRFRRLLELAQDINLWQMRVVPVLKKWVNKRVCLLGDAAHAMLPTLGQGFGMGLEDAVALGTLLPKGTTASQIETRLAVYEQLRKDRAEFVAAESYEEQYVPEMRGLYLRSKELRDRVMGYDIKVESEKVLETLLRSSNSA | significantly increased bioluminescence
